From publication PMC10333351 (Nature Communications, 2023)

How the values were obtained:
[1] = target: T1, FtsZ from Escherichia coli, full length, purified (tag state not stated) (Escherichia coli, UniProt P0A9A6 1-383); experiment: SPR
T1 chain: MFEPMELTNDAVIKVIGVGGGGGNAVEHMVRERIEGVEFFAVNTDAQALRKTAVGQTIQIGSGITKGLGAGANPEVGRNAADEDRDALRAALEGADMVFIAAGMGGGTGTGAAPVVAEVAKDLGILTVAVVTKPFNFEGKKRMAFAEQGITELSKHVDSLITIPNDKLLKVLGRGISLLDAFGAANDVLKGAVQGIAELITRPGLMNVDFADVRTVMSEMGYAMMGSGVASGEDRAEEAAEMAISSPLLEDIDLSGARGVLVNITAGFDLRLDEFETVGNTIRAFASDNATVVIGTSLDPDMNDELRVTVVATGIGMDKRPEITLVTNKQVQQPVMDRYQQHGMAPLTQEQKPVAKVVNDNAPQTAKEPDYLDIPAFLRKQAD

[2] = target: T2, FtsZ from Klebsiella pneumoniae, full length, purified (tag state not stated) (Klebsiella pneumoniae, UniProt W9BCK7 1-383); experiment: SPR
T2 chain: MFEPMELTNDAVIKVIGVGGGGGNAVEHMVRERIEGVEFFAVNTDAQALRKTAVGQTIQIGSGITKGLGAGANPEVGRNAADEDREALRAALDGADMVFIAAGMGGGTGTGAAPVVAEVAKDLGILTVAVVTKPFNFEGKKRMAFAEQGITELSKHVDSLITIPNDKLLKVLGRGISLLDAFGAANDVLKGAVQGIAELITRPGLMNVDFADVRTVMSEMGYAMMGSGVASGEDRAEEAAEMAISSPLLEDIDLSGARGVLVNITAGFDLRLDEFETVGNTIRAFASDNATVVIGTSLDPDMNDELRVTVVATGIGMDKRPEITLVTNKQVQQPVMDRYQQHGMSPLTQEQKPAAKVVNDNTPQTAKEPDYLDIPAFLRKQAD

[3] = target: the molecule itself; experiment: crystal structure; FtsZtr mixed with 1.2x molar excess of Mb and PC190723; hanging drop, 293 K, 0.2 M sodium formate, 0.1 M Bis-Tris propane pH 6.5, 20% PEG3350; space groups P212121 and P21
[4] = target: the molecule itself; experiment: cryo-EM structure; KpFtsZ-Mb double-helical tube: 4.0 mg/ml KpFtsZ, 20 mM HEPES pH 7.5, 25 mM NaCl, 100 mM KCl, 5 mM MgCl2, 1 mM GMPPNP, 0.12 mM PC190723, 1.2x molar excess of Mb
[5] = target: the molecule itself; experiment: negative staining EM; 1.0 mg/ml purified KpFtsZ alone or with 1 mM GTP, GMPCPP, GDP or GMPPNP; uranyl acetate stain

B1: Mb(Ec/KpFtsZ_S1), His10-tagged (designed binder)
chain: MKHHHHHHHHHHSSDYKDDDDKGENLYFQGSVSSVPTKLEVVAATPTSLLISWDAPAVTVSYYRITYGETGGNSPVQEFTVPGSKSTATISGLSPGVDYTITVYARSAYHRRSPISINYRT
B1 was tested, and the koff [1] was 0.39 s⁻¹ and the koff [2] was 0.67 s⁻¹.

B2: truncated KpFtsZ (residues 11-316), tag removed (domain or fragment, Klebsiella pneumoniae, UniProt W9BCK7 11-316, looked up)
chain: AVIKVIGVGGGGGNAVEHMVRERIEGVEFFAVNTDAQALRKTAVGQTIQIGSGITKGLGAGANPEVGRNAADEDREALRAALDGADMVFIAAGMGGGTGTGAAPVVAEVAKDLGILTVAVVTKPFNFEGKKRMAFAEQGITELSKHVDSLITIPNDKLLKVLGRGISLLDAFGAANDVLKGAVQGIAELITRPGLMNVDFADVRTVMSEMGYAMMGSGVASGEDRAEEAAEMAISSPLLEDIDLSGARGVLVNITAGFDLRLDEFETVGNTIRAFASDNATVVIGTSLDPDMNDELRVTVVATGIG
notes: FtsZ, Klebsiella pneumoniae, residues 11-316; also called KpFtsZtr; source: E. coli, purified (HisTrap, HiTrap Q, Superdex200), tag removed with TEV protease; not shown: His6, N-terminal, cleaved
B2: binds [3].

B3: truncated EcFtsZ (residues 11-316), tag removed (domain or fragment, Escherichia coli, UniProt P0A9A6 11-316, looked up)
chain: AVIKVIGVGGGGGNAVEHMVRERIEGVEFFAVNTDAQALRKTAVGQTIQIGSGITKGLGAGANPEVGRNAADEDRDALRAALEGADMVFIAAGMGGGTGTGAAPVVAEVAKDLGILTVAVVTKPFNFEGKKRMAFAEQGITELSKHVDSLITIPNDKLLKVLGRGISLLDAFGAANDVLKGAVQGIAELITRPGLMNVDFADVRTVMSEMGYAMMGSGVASGEDRAEEAAEMAISSPLLEDIDLSGARGVLVNITAGFDLRLDEFETVGNTIRAFASDNATVVIGTSLDPDMNDELRVTVVATGIG
notes: FtsZ, Escherichia coli, residues 11-316; also called EcFtsZtr; source: E. coli, purified (HisTrap, HiTrap Q, Superdex200), tag removed with TEV protease; not shown: His6, N-terminal, cleaved
B3: binds [3].

B4: FtsZ from Klebsiella pneumoniae, full length, tag removed (natural protein, UniProt W9BCK7 1-383, looked up)
chain: MFEPMELTNDAVIKVIGVGGGGGNAVEHMVRERIEGVEFFAVNTDAQALRKTAVGQTIQIGSGITKGLGAGANPEVGRNAADEDREALRAALDGADMVFIAAGMGGGTGTGAAPVVAEVAKDLGILTVAVVTKPFNFEGKKRMAFAEQGITELSKHVDSLITIPNDKLLKVLGRGISLLDAFGAANDVLKGAVQGIAELITRPGLMNVDFADVRTVMSEMGYAMMGSGVASGEDRAEEAAEMAISSPLLEDIDLSGARGVLVNITAGFDLRLDEFETVGNTIRAFASDNATVVIGTSLDPDMNDELRVTVVATGIGMDKRPEITLVTNKQVQQPVMDRYQQHGMSPLTQEQKPAAKVVNDNTPQTAKEPDYLDIPAFLRKQAD
notes: Used for cryoEM; Polymer (protofilament or double-helical tube); also called KpFtsZ; source: E. coli, purified (HisTrap, HiTrap Q, Superdex200), tag removed with TEV protease; not shown: His6, N-terminal, cleaved
B4: binds [4].

B5: FtsZ from Klebsiella pneumoniae, full length, purified (tag state not stated) (natural protein, UniProt W9BCK7 1-383, looked up)
chain: MFEPMELTNDAVIKVIGVGGGGGNAVEHMVRERIEGVEFFAVNTDAQALRKTAVGQTIQIGSGITKGLGAGANPEVGRNAADEDREALRAALDGADMVFIAAGMGGGTGTGAAPVVAEVAKDLGILTVAVVTKPFNFEGKKRMAFAEQGITELSKHVDSLITIPNDKLLKVLGRGISLLDAFGAANDVLKGAVQGIAELITRPGLMNVDFADVRTVMSEMGYAMMGSGVASGEDRAEEAAEMAISSPLLEDIDLSGARGVLVNITAGFDLRLDEFETVGNTIRAFASDNATVVIGTSLDPDMNDELRVTVVATGIGMDKRPEITLVTNKQVQQPVMDRYQQHGMSPLTQEQKPAAKVVNDNTPQTAKEPDYLDIPAFLRKQAD
notes: Used for SPR (analyte) and negative staining EM; also called KpFtsZ; source: E. coli, purified (HisTrap, HiTrap Q, Superdex200)
B5: binds [5].
